The results in this text go back to paper PMC9388093.

For this data set, the target named is T1, rPfTPx-1 (thioredoxin peroxidase 1) (Plasmodium falciparum, UniProt Q8IL80 1-195).
T1 sequence: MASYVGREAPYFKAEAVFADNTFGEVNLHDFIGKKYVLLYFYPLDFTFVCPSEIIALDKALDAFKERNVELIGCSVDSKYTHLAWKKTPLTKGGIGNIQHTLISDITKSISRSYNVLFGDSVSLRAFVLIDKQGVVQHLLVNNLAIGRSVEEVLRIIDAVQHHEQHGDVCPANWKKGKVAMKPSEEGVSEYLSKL
Description: EMSA.

AUCACAUACAUAUACACAAACACUUAUACAUACACAUA (ssRNA) [IntPE (PE) RNA probe, fluorescent]: the binding result is recorded as “binds”.
